The target in test [1] is CEACAM6 on transfected CHO cells (human) (UniProt P40199). As to the kind of experiment: flow cytometry; CHO transfectant 'CEACAM6' with HopQ as in Fig. 6 b; number in the panel = median; untransfected CHO with HopQ: 6 [cont.) c]. For orientation: Flow cytometry measures light scatter and fluorescence of single cells or particles in a stream.
For test [2], the target named is CEACAM5 on transfected CHO cells (human) (UniProt P06731). As to the kind of experiment: flow cytometry; CHO transfectant 'CEACAM5' with HopQ as in Fig. 6 b; number in the panel = median; untransfected CHO with HopQ: 6 [cont.) c].
For test [3], the target named is CEACAM3 on transfected CHO cells (human) (UniProt P40198). In words: flow cytometry; CHO transfectant 'CEACAM3' with HopQ as in Fig. 6 b; number in the panel = median; untransfected CHO with HopQ: 6 [cont.) c].
In test [4] the target is CEACAMs endogenously expressed on AGS gastric cancer cells (CEACAM1, CEACAM5 and CEACAM6). In words: flow cytometry; AGS cells with myc-His-tagged HopQ, anti c-myc mAb, FITC goat anti-mouse F(ab')2; thin line: control IgG; number in the panel = median.
Test [5] has as its target CEACAM7 on transfected CHO cells (human) (UniProt Q14002). In words: flow cytometry; CHO transfectant 'CEACAM7' with HopQ as in Fig. 6 b; number in the panel = median; untransfected CHO with HopQ: 6 [cont.) c].
Test [6] concerns the target CEACAMs endogenously expressed on MKN45 gastric cancer cells (CEACAM1, CEACAM5 and CEACAM6). In words: flow cytometry; MKN45 cells with myc-His-tagged HopQ, anti c-myc mAb, FITC goat anti-mouse F(ab')2; thin line: control IgG; number in the panel = median.
Test [7] deals with CEACAM4 on transfected CHO cells (human) (UniProt O75871). As to the kind of experiment: flow cytometry; CHO transfectant 'CEACAM4' with HopQ as in Fig. 6 b; number in the panel = median; untransfected CHO with HopQ: 6 [cont.) c].
The target of test [8] is human CEACAM1 (hu-CEACAM1-4L) on stably transfected CHO cells (human) (UniProt P13688). As to the kind of experiment: flow cytometry; CHO transfectant 'CEACAM1' with HopQ as in Fig. 6 b; number in the panel = median; untransfected CHO with HopQ: 6 [cont.) c].
Test [9] addresses CEACAM8 on transfected CHO cells (human) (UniProt P31997). In words: flow cytometry; CHO transfectant 'CEACAM8' with HopQ as in Fig. 6 b; number in the panel = median; untransfected CHO with HopQ: 6 [cont.) c].
Test [10] deals with human CEACAM1 (hu-CEACAM1-4L) on stably transfected CHO cells (human) (UniProt P13688). As to the kind of experiment: flow cytometry; CHO-CEACAM1 cells with myc-His-tagged HopQ, anti c-myc mAb, FITC goat anti-mouse F(ab')2; thin line: control IgG; number in the panel = median.
For test [11], the target named is CEACAMs endogenously expressed on AGS gastric cancer cells (CEACAM1, CEACAM5 and CEACAM6). In words: cell-based or functional assay.
Test [12] has as its target human CEACAM1-Fc (extracellular domains N-A1-B1-A2 fused to a human heavy chain Fc-domain) (human) (UniProt P13688).
Test [13] concerns the target T1, human CEACAM6-Fc (extracellular domains N-A-B fused to a human heavy chain Fc-domain) (human, UniProt P40199 35-320).
T1 construct: extracellular domain; Made in HEK293 cells; also called hu-CEACAM6-Fc; not shown: human heavy chain Fc-domain
T1 sequence: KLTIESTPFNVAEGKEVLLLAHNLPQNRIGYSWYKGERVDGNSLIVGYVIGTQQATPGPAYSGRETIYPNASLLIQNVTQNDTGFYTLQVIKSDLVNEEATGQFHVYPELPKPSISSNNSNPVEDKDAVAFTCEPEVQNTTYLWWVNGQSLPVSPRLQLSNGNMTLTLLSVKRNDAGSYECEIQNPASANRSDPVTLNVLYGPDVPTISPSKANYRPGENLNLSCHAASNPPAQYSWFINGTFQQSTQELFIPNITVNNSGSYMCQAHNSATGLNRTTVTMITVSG
In words: pull-down of live bacteria with CEACAM-Fc; western blot and flow cytometry with α-hu-IgG-FITC [cont.) c].

Test [14] addresses T2, human CEACAM1-Fc (extracellular domains N-A1-B1-A2 fused to a human heavy chain Fc-domain) (human, UniProt P13688 35-428).
T2 construct: extracellular domain; Made in HEK293 cells; also called hu-CEACAM1-Fc; not shown: human heavy chain Fc-domain
T2 sequence: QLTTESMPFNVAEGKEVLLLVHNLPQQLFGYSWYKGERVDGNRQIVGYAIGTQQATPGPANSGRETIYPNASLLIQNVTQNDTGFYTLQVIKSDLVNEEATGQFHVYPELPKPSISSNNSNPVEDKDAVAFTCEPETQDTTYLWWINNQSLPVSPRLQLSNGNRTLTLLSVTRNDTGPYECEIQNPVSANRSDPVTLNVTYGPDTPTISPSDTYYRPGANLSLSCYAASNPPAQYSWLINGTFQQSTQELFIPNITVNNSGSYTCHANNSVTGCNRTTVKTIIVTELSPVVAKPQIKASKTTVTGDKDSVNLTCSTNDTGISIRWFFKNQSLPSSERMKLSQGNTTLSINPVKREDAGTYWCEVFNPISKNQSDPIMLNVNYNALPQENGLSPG
Described as above.

The target of test [15] is T3, recombinant human CEACAM5-Fc (Sino Biological Inc.) (human, UniProt P06731 35-685).
T3 construct: also called hu-CEACAM5-Fc; not shown: Fc part of the bought fusion; not described
T3 sequence: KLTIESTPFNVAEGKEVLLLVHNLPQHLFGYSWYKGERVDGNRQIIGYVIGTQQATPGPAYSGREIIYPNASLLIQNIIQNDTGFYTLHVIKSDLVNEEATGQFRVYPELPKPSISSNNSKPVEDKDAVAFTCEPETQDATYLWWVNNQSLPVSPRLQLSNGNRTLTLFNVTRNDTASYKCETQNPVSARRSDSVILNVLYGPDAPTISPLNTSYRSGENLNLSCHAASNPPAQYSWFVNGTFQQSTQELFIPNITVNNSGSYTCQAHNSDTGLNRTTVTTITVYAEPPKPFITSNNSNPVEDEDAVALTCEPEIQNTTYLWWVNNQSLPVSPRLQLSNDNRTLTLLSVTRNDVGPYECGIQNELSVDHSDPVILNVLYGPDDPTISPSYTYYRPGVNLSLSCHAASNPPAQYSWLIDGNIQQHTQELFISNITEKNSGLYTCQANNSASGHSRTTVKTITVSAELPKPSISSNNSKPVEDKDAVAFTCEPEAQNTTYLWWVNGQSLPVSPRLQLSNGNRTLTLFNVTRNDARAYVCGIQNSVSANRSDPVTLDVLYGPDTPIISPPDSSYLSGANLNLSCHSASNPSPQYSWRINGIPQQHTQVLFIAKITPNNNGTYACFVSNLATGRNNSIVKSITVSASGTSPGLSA
The description is as above.

CEACAM8 on transfected CHO cells (human), sequence (P31997 35-320): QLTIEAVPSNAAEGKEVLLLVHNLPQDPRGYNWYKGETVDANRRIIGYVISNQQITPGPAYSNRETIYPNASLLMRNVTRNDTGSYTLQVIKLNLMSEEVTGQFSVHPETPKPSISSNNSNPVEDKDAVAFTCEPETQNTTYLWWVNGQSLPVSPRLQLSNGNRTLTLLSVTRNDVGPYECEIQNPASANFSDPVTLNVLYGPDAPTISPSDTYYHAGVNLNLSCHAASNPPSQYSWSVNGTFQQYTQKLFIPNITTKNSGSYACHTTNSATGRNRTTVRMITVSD
CEACAM3 on transfected CHO cells (human), sequence (P40198 35-252): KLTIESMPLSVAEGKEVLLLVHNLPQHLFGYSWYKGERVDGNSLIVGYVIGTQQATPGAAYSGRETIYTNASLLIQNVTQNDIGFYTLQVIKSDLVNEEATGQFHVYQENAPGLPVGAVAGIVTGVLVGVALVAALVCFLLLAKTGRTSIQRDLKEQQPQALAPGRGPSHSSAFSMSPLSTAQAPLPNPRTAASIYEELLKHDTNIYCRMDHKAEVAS
CEACAM4 on transfected CHO cells (human), sequence (O75871 36-244): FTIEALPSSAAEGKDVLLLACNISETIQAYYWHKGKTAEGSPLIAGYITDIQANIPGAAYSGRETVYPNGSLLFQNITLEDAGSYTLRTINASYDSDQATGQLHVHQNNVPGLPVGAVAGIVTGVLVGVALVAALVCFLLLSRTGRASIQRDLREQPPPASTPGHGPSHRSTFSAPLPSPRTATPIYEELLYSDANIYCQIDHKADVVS
CEACAM7 on transfected CHO cells (human), sequence (Q14002 36-242): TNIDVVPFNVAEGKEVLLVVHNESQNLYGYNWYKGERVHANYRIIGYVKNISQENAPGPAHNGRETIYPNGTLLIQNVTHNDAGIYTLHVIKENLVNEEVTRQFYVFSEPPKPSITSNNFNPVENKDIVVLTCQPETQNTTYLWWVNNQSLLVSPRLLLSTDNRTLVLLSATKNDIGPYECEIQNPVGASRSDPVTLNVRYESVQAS

For “H. pylori strain P12 derived, myc and 6x His-tagged recombinant HopQ”, the median relative fluorescence (FL1-H) was determined as 12 in [1]; 136 in [2]; 18 in [3]; 32 in [4]; 6 in test [5]; 155 in test [6]. The median relative fluorescence (FL1-H) in test [7] was 6; in [8] it was 63; in test [9] it was 6; in test [10], 18.

The molecule “HopQ insertion domain (HopQ-ID) representing peptide (aa 190-218), HA-tagged, synthetic” gave a P12-induced phosphorylation of CagA, concentration needed against HopQ^AD (fold higher concentration than HopQ^AD) in test [11] of 10 to 20.

Molecule Outer membrane protein babA yielded a Score (Sequest) in [12] of 8.

Molecule Outer membrane protein hopC registered a Score (Sequest) in [12] of 14.4.

For the molecule Outer membrane protein hopZ, the Score (Sequest) in test [12] was determined as 31.7.

Outer membrane protein sabA: the Score (Sequest) in test [12] was found to be 6.66.

Outer membrane protein sabB had a Score (Sequest) in [12] of 23.4.

B1: HopQ of H. pylori strain P12, on live wild-type bacteria (compared with the isogenic P12ΔhopQ mutant) (other)
chain: AEDNGVFLSVGYQIGEAVQKVKNADKVQKLSDTYEQLSRLLTNDNGTNSKTSAQAINQAVNNLNERAKTLAGGTTNSPAYQATLLALRSVLGLWNSMGYAVICGGYTKSPGENNQKNFHYTDENGNGTTINCGGSTNSNGTHSSNGTNTLKADKNVSLSIEQYEKIHESYQILSKALKQAGLAPLNSKGEKLEAHVTTSKYQQDSQTKTTTSVIDTTNDAQNLLTQAQTIVNTLKDYCPMLIAKSSSGSGGGAATNTPSWQTAGGGKNSCETFGAEFSAASDMINNAQKIVQETQQLSANQPKNITQPHNLNLNTPSSLTALAQKMLKNAQSQAEILKLANQVESDFNKLSSGHLKDYIGKCDMSAISSTNMTMQSQKNNWGNGCAGVEETLTSLKTSAADFNNQTPQINQAQNLANTLIQELGNNPFRNMGMIASSTTNNGALNGLGVQVGYKQFFGEKKRWGLRYYGFFDYNHAYIKSNFFNSASDVWTYGVGSDLLFNFINDKNTNFLGKNNQISFGLFGGIALAGTSWLNSQFVNLKTISNVYSAKVNTANFQFLFNLGLRTNLARPKKKDSHHAAQHGIELGVKIPTINTNYYSFLDTKLEYRRLYSVYLNYVFAY
For the molecule B1, the binding result in [13], in [14] and in test [15] was “binds” in each case.

The values above are taken from patent US20210008207A1 (TECHNISCHE UNIVERSIT T M NCHEN, published 2021).
